Experimental findings from patent US20210122824A1 (ADAGENE, published 2021) are described below.

Where a chain is given by its changes, count along the chain named.

Assay [1] concerns the target T1, human PD-L1-Fc fusion protein (Sino Biological Cat #10084-H02H) (human, UniProt Q9NZQ7 19-239).
T1 construct: bought; not shown: Fc part of the bought fusion
Kind of assay: BLI (ForteBio), PD-L1-Fc on AHC sensor, Fab in solution.

The target of assay [2] is T2, human TIM3 expressed on HEK293F cells (human, UniProt Q8TDQ0 22-301).
T2 construct: whole, on cells
Briefly: flow cytometry, HEK293F cells transiently expressing the target, 100 nM antibody, PE anti-human Fc; Mean (PE-A against FITC-A, GFP surrogate).

In assay [3] the target is T3, human B7-H3 expressed on HEK293F cells (human, UniProt Q5ZPR3 29-534).
T3 construct: whole, on cells
T3 sequence (looked up): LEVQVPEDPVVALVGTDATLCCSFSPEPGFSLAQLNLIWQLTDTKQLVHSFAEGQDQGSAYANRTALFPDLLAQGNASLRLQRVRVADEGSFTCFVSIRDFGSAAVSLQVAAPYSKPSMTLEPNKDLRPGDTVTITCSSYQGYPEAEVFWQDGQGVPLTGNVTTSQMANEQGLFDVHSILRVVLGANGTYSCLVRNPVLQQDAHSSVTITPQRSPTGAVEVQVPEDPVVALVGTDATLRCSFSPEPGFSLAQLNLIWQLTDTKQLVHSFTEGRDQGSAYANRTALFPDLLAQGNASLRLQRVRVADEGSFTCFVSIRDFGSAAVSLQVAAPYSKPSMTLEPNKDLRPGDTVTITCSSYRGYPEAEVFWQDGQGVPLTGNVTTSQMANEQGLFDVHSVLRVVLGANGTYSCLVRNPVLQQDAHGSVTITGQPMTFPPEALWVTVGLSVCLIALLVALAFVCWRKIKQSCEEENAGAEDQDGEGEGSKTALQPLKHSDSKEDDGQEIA
Described as above.

Assay [4] deals with T4, human LAG3 expressed on HEK293F cells (human, UniProt P18627 23-525).
T4 construct: whole, on cells
T4 sequence (looked up): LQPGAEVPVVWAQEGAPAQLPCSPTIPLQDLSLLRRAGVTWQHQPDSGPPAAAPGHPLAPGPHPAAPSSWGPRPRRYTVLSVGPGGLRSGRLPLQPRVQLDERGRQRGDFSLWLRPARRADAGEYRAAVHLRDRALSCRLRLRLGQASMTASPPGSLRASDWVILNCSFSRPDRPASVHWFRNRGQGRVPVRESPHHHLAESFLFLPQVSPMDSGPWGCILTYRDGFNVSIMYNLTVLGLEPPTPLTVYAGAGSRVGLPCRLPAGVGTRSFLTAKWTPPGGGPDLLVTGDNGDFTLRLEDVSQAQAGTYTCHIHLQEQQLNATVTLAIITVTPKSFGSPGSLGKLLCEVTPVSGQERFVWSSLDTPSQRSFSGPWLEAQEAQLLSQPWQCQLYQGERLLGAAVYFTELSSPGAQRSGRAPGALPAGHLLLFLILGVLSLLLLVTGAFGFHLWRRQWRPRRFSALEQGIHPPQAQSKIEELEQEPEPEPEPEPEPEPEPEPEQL
Described as above.

Assay [5] has as its target T5, human CTLA4 expressed on HEK293F cells (human, UniProt P16410 36-223).
T5 construct: whole, on cells
Described as above.

In assay [6] the target is T2, human TIM3 expressed on HEK293F cells. Briefly: flow cytometry on transfected HEK293F cells.
In assay [7] the target is T6, human PD1 expressed on HEK293F cells (human, UniProt Q15116 25-288).
T6 construct: whole, on cells
T6 sequence (Q15116 25-288): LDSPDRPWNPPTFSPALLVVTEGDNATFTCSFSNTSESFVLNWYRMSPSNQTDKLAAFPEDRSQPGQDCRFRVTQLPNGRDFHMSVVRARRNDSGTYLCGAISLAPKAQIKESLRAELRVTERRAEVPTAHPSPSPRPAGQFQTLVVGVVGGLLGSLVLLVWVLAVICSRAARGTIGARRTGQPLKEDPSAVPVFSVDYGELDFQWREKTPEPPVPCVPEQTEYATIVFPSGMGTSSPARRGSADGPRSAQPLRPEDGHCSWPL
Kind of assay: flow cytometry on transfected HEK293F cells.

Assay [8] addresses T3, human B7-H3 expressed on HEK293F cells. Kind of assay: flow cytometry on transfected HEK293F cells.
Assay [9] concerns the target T4, human LAG3 expressed on HEK293F cells. Briefly: flow cytometry on transfected HEK293F cells.
Assay [10] has as its target T5, human CTLA4 expressed on HEK293F cells. Kind of assay: flow cytometry on transfected HEK293F cells.
The target of assay [11] is T7, human PD-L1 expressed on cell surface (human, UniProt Q9NZQ7 19-290).
T7 construct: whole, on cells; also called full-length human PD-L1; cell surface PD-L1
T7 sequence (Q9NZQ7 19-290): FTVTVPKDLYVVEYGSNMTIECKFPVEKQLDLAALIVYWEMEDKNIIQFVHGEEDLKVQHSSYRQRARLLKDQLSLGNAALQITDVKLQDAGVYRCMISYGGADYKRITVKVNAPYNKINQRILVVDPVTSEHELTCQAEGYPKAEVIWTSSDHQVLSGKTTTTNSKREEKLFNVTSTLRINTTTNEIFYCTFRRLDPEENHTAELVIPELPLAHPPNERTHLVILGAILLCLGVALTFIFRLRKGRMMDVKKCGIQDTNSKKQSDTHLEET
Kind of assay: blocking by flow cytometry, HEK293F cells expressing full-length human PD-L1, 100 nM antibody then 100 nM biotinylated PD1-His (blocked ligand), Alexa fluor 633 streptavidin; isotype control panel Q2 35.1%.

Assay [12] deals with T6, human PD1 expressed on HEK293F cells. Briefly: flow cytometry, HEK293F cells transiently expressing the target, 100 nM antibody, PE anti-human Fc; Mean (PE-A against FITC-A, GFP surrogate).
The target of assay [13] is T8, rhesus PD-L1 expressed on HEK293F cells (rhesus, UniProt F6VEW6 19-290).
T8 construct: whole, on cells
Described as above.

In assay [14] the target is T1, human PD-L1-Fc fusion protein (Sino …). Kind of assay: competition ELISA, PD1-Fc (1 ug/mL) coated, biotinylated PD-L1-Fc mixed with antibody, HRP neutravidin; blocked ligand PD1-Fc.
Assay [15] has as its target T9, mouse PD-L1-Fc fusion protein (mouse, UniProt Q9EP73 19-238, limits assumed).
T9 construct: not shown: Fc part
Briefly: BLI (ForteBio), PD-L1 on AHC sensor, Fab in solution.

T1 sequence (Q9NZQ7 19-239 limits assumed): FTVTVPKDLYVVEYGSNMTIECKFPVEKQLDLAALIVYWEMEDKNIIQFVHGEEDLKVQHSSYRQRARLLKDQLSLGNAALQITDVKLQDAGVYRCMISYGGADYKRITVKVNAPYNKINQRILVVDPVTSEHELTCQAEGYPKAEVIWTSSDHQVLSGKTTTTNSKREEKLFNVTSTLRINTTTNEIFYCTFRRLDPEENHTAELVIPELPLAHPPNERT
T9 sequence (Q9EP73 19-238 limits assumed): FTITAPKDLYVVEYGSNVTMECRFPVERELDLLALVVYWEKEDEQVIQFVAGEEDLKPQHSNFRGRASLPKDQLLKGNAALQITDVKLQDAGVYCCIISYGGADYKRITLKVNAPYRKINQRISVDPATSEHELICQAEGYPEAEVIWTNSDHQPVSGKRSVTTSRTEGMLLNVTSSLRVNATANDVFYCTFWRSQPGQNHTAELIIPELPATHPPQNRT
T5 sequence (P16410 36-223): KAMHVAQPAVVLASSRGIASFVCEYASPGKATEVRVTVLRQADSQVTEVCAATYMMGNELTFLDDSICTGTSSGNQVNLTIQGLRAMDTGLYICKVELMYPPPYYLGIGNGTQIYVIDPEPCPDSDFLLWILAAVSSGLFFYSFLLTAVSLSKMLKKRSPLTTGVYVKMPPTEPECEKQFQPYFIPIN

B1: B14665 (Fab, V domains shown)
VH: EVQLVESGGGLVQPGGSLRLSCAASGYTFSNYGIHWVRQAPGKGLEWIGWIYPSGGGTKYAQKFQGRVTISRDNSKNTLYLQLNSLRAEDTAVYYCAREGGGYGYALDYWGQGTLVTVSS
VL: DIQLTQSPSSLSASVGDRVTITCRASQSVDFYGKSFLAWYQQKPGKAPKLLIYDASSLESGVPSRFSGSGSGTDFTLTISSLQPEDFATYYCQQYDSWPYTFGQGTKVEIKR
notes: Fab from E. coli
B1 registered a Kd in assay [1] of 0.369 nM.

B2: B14638 (Fab, V domains shown)
VH: B1 VH
VL: DIQLTQSPSSLSASVGDRVTITCRASQSVGSIYLGWYQQKPGKAPKLLIYDASNRATGIPSRFSGSGSGTDFTLTISSLQPEDFATYYCQQYDSWPYTFGQGTKVEIKR
notes: Fab from E. coli
Consider B2, for which the affinity in [1], expressed as Kd, was 0.314 nM.

B3: B14689 (Fab, V domains shown)
VH: B1 VH
VL: B1 VL with A38D, S97H
notes: Fab from E. coli
For the molecule B3, the dissociation constant Kd in assay [1] came out at 0.163 nM.

B4: B14673 (Fab, V domains shown)
VH: B1 VH
VL: B1 VL with Q27E
notes: Fab from E. coli
In assay [1], B4 yielded a Kd of 0.323 nM.

B5: B14681 (Fab, V domains shown)
VH: B1 VH
VL: B1 VL with Y32H, K34I, A38D, S57N, L58R, E59A, S60T, V62I, S97H
notes: Fab from E. coli
In the case of B5, binding in assay [1] was put at a Kd of 0.543 nM.

B6: B14690 (Fab, V domains shown)
VH: B1 VH
VL: B1 VL with Y32H, K34I, A38D, S57N, S60T
notes: Fab from E. coli
In assay [1], B6 showed a Kd of 0.467 nM.

B7: TY21420 (antibody, V domains shown)
VH: EVQLVESGGGLVQPGGSLRLSCAASGYSISSGYYWGWIRQAPGKGLEWIGIIYPSGGGTNYAQKFQGRVTISRDNSKNTLYLQLNSLRAEDTAVYYCARGGGLGFDYWGQGTLVTVSS
VL: DIQLTQSPSSLSASVGDRVTITCRASQTIPSFLNWYQQKPGKAPKLLIYAASSLQSGVPSRFSGSGSGTDFTLTISSLQPEDFATYYCQHYTSWPRQFTFGQGTKVEIKR
notes: IgG1 (wild type) made from Fab B15016, from HEK293F cells
Consider B7, for which the Mean in assay [2] is 4660; in [3], 3780; in assay [4], 4630; in [5] it was 4570; in [12], 3710; in assay [13], 164000. For the same molecule, the binding result in assay [6], in [7], in assay [8], in assay [9] and in [10] was “no binding (tested: 100 nM)” throughout. In addition, the “Q2 (percent of cells positive for GFP and for the APC signal of PD1-His, antibody present)” value in assay [11] was found to be 1.53%. Besides, in assay [14], the “IC50 (read off the curve)” value was approximately 6 nM.

B8: B15041 (Fab, V domains shown)
VH: B7 VH
VL: B7 VL with T28S, T92I
notes: Fab from E. coli
Take B8: the Kd in [15] came to 1.67 nM; in assay [1], 1.68 nM.

B9: B15016 (Fab, V domains shown)
VH: B7 VH
VL: B7 VL
notes: Fab from E. coli
With B9, the Kd was determined as 2.84 nM in assay [15] and 3.56 nM in assay [1].

B10: B15082 (Fab, V domains shown)
VH: B7 VH
VL: B7 VL with T92G, Q97R
notes: Fab from E. coli
Take B10: the Kd in assay [15] came to 3.23 nM; in assay [1] it was 4.79 nM.

B11: B15012 (Fab, V domains shown)
VH: B7 VH
VL: B7 VL with S53T, T92S, Q97G
notes: Fab from E. coli
B11: the Kd was determined as 2.03 nM in [15] and 1.76 nM in [1].

B12: B15024 (Fab, V domains shown)
VH: B7 VH
VL: B7 VL with T28S, S31T, S53T, T92V, Q97L
notes: Fab from E. coli
For the molecule B12, the Kd in assay [15] turned out to be 3.48 nM; in assay [1], 4.52 nM.

B13: B15014 (Fab, V domains shown)
VH: B7 VH
VL: B7 VL with T28D, S31K, N34A, S53T, T92V
notes: Fab from E. coli
As to B13, the Kd in assay [15] came to 3.87 nM; in assay [1] it was 2.43 nM.

B14: B14032 (Fab, V domains shown)
VH: B7 VH
VL: B7 VL with R24Q, T28D, S31T, N34A, H90Q, T92V, Q97G
notes: Fab from E. coli
Consider B14, for which the Kd in assay [15] is 4.84 nM; in assay [1], 5.11 nM.

B15: B15022 (Fab, V domains shown)
VH: B7 VH
VL: B7 VL with T28S, S53T, H90Q, T92S, Q97L
notes: Fab from E. coli
Regarding B15, the results for the Kd in assay [15] and in assay [1] were 3.03 nM and 3.68 nM, respectively.

B16: B15074 (Fab, V domains shown)
VH: B7 VH
VL: B7 VL with S53T, T92I, Q97V
notes: Fab from E. coli
In the case of B16, the Kd came out at 2.98 nM in [15] and 4.31 nM in [1].
